Values quoted from earlier work as cited in PMC9760423.

How the values were obtained:
4E-BP2 (Homo sapiens) = 4E-BP2 (Homo sapiens) (UniProt Q13542)
[1] = biological target: Cdc4 (Saccharomyces cerevisiae) (UniProt P07834)
Chain of UniProt P07834 (P07834 whole entry): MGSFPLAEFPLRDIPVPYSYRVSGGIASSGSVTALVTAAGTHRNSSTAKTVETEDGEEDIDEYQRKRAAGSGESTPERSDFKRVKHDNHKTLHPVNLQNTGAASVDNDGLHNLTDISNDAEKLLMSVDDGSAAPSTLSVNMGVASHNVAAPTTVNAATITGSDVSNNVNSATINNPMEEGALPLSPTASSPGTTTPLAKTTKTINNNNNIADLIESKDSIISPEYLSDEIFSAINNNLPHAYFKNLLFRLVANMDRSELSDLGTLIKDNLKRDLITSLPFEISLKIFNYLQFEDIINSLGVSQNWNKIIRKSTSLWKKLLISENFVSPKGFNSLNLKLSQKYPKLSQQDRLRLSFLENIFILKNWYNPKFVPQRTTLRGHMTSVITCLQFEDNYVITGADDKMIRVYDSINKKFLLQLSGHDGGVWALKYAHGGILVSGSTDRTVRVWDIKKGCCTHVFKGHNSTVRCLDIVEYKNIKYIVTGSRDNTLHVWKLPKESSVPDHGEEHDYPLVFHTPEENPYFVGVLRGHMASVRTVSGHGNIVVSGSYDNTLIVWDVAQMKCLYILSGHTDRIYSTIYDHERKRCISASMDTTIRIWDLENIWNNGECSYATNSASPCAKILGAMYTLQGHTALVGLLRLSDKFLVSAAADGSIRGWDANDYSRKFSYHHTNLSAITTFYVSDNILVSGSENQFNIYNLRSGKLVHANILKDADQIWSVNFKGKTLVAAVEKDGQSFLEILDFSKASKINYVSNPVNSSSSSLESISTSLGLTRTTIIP

Chain of UniProt Q13542 (Q13542 whole entry): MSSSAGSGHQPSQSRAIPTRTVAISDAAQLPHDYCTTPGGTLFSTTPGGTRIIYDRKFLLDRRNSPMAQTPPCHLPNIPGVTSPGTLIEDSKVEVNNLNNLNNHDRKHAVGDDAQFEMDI

Substance | Kd (4E-BP2 (Homo sapiens)) | Kd [1]
eIF4E (from UniProt P06730) | 3.2 nM | 
Sic1 (from UniProt P38634) |  | 1000 nM
